Drawing on paper PMC8470970, “A Novel L-Asparaginase from Hyperthermophilic Archaeon Thermococcus sibiricus: Heterologous Expression and Characterization for Biotechnology Application” (International Journal of Molecular Sciences, 2021), this text covers Km for one protein.

Usually Km stands for the substrate concentration at which the rate is half of its maximum.

Substrate in the data set: NC(=O)C[C@H](N)C(=O)O
Briefly: ammonia release by direct Nesslerization; Lineweaver-Burk plot. Format: biochemical, Thermococcus sibiricus. Conditions: Tris-HCl 0.05 M, pH 9.0, 90 °C, printed substrate range 20-250 μM.

B1: TsA (L-asparaginase from Thermococcus sibiricus) (Thermococcus sibiricus MM 739) (protein)
chain: MKKLLIIGTGGTIASAKTEQGYKSVLKIDEILKLAKIKLENGYKIDSTNIMNIDSTLIHPEDWEIIAKEVFKALDDYDGIIITHGTDTLAYTASMLSFMIKNPNKPIVLTGSMLPITENGSDAPRNIRTAIKFAMEDVAGVFVAFMDKIMLGCRTSKVRTLGLNAFMSINYPDVAYVKGEKILYNIPKEKFQPNGSPELDTKYEPRVVVLRVTPGLGGEIIDAVLDAGYKGIVLEGYGAGGLPYRKSNLLSKIKEITPKIPVIMTTQALYDGVDMRKYEVGRKALETGIIPAKDMTKEATITKLMWALGHTKDVEKIREIMHTNYVNEIKS
notes: full-length, 331 residues, codon-optimized synthetic gene in pET-28a(+) NheI/SalI, E. coli BL21 (DE3); SP-Sepharose ion exchange
With B1, the Km stood at 2.8 mM.
